According to PMC5996148:

Tests used:
[1] = target: La ribonucleoprotein domain family, member 1 (human) (UniProt Q6PKG0); assay: protein microarray; conditions: 3'-biotin; Microarray: 20 mM Tris pH 7.5, 5 mM MgCl2, 100 mM KCl, 0.1% Tween-20, A/T-rich ON blocker mix; EMSA: 20 mM Tris-HCl pH 8, 100 mM KCl, 200 nM ON, 0-200 nM BRD3 …
[2] = target: T1, small trans-membrane and glycosylated protein (human) (UniProt O95332); assay: protein microarray; conditions: 3'-biotin; Microarray: 20 mM Tris pH 7.5, 5 mM MgCl2, 100 mM KCl, 0.1% Tween-20, A/T-rich ON blocker mix; EMSA: 20 mM Tris-HCl pH 8, 100 mM KCl, 200 nM ON, 0-200 nM BRD3 …
T1 sequence: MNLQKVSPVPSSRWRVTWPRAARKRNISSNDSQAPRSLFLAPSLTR

Sequence: GGGAGGCTGAGGCAGG [G4-1 biotinylated (PQS2)]
- binding signal [1]: 4.49 Z-score
- binding signal [2]: 3.31 Z-score

Sequence: GGGGACAGGGGTATGGGGAGGGG [G4-3 biotinylated (CtG)]
- binding signal [1]: 4.71 Z-score
- binding signal [2]: 4.59 Z-score

Sequence: GGTGACAGGGGTATGGGGAGGGG [G4-2 biotinylated (Ct1)]
- binding signal [1]: 5.37 Z-score
- binding signal [2]: 5.81 Z-score
